Columns and labels:
Assay in all cases: pull-down
[1] = biological target: T1, His-tagged AHL10, non-mutated wild type (Arabidopsis thaliana, UniProt O22812 1-351)
T1 sequence (looked up): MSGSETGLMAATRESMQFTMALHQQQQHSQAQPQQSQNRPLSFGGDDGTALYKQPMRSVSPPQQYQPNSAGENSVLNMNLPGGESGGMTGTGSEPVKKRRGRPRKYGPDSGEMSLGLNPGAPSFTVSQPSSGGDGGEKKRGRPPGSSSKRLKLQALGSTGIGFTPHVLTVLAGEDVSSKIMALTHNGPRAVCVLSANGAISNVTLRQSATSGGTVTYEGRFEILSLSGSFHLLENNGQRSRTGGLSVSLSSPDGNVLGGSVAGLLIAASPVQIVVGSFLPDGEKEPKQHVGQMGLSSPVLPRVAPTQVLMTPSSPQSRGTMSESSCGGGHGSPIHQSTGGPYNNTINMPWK

[2] = biological target: T2, His-tagged AHL10 S314D (phosphomimic) (Arabidopsis thaliana, UniProt O22812 1-351, S314D)
T2 sequence (looked up): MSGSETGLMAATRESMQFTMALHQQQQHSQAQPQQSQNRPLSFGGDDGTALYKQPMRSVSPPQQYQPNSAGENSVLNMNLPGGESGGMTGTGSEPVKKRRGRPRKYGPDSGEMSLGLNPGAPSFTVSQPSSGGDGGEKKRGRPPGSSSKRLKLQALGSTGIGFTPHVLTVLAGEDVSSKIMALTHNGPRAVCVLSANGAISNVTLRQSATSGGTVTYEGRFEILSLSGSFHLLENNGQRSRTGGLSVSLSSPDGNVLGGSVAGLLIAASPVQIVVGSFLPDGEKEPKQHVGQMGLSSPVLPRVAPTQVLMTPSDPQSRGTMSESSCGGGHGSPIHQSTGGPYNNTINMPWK

[3] = biological target: T3, His-tagged AHL10 S313D (phosphomimic) (Arabidopsis thaliana, UniProt O22812 1-351, S313D)
T3 sequence (looked up): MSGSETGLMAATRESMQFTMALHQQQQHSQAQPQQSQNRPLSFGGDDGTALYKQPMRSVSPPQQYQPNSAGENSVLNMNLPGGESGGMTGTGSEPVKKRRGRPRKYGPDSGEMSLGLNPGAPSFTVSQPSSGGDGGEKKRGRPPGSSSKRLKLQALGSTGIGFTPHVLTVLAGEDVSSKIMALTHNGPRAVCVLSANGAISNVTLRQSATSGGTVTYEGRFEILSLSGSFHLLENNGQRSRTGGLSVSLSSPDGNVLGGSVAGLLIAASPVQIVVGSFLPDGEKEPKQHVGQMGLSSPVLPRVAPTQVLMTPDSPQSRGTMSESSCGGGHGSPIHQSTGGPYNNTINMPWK

Measured: binding result

B1: GST-tagged RRP6L1 C-terminal 337 amino acids (domain or fragment, Arabidopsis thaliana, UniProt Q0WVE8 301-637, looked up)
chain: YKRSYDVCMQLYEKELWTRDSYLHVYGVQTGNLNAVQLSIVAGLCEWRDRIARADDESTGYVLPNKTLFDIAKEMPIVVAQLRRLLKSKLPYLERNFDAVISVIRRSMQNAAAFEPVVQSLKDRRPETVVEMNIEPKIEKTDTGASASSLSLEKVCVDDSKKQSSGFGVLPLKRKLESDKTVVEKNIEPKIEKTGTEASASSLSSKKVCVDDSKKQSSGFGVLLSKRKFESDNKVKEEVKVSKSKPDKVIIVVDDDDDDDDDESYEQSTKAADALDRVSETPSKGSPSLTQKPKTCNTEVIVLDDDDDSESREDEDMRRRSEKHRRFMNMKRGFLNI
binds: all assays above

B2: GST-tagged RRP6L1 N-terminal 300 amino acids (domain or fragment, Arabidopsis thaliana, UniProt Q0WVE8 1-300, looked up)
chain: MRFDDPMDEFKRNRKMEEDSKKVIDVKVAESDKGFAKFGKAEVPFHIPTLTKPQEEYKILVDNANNPFEHVLLEKSEDGLRFIHPLEELSVMDFVDRNLSEMRPVKPLPLEETPFKLVEEVKDLEDLAAALQSVEEFAVDLEHNQYRTFQGLTCLMQISTRTEDYIVDIFKLWDHIGPYLRELFKDPKKKKVIHGADRDIIWLQRDFGIYVCNLFDTGQASRVLKLERNSLEFLLKHYCGVAANKEYQKADWRIRPLPDVMKRYAREDTHYLLYIYDVMRMELHTMAKEDEQSDSPLVEV
binds: all assays above

From doi:10.1101/2023.04.17.537135 (bioRxiv, 2023)
